Holding throughout (test): cell-based or functional assay
One test addresses T1, human GIP receptor (human, UniProt P48546 22-466).
T1 sequence (looked up): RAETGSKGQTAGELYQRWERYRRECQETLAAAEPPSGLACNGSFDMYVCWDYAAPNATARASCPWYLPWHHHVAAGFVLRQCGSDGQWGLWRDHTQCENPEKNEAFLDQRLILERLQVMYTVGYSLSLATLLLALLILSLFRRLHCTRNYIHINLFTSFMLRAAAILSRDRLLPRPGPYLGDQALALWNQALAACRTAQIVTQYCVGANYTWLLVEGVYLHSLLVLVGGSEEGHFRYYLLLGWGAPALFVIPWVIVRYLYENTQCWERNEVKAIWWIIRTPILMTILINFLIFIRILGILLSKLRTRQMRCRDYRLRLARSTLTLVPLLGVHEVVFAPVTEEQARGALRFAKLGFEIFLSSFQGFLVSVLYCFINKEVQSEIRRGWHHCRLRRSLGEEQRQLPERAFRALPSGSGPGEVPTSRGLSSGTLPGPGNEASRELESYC

A further test concerns the target human GCG receptor (human, UniProt P47871 26-477).
Another test addresses human GLP-1 receptor (human, UniProt P43220 24-463).

This is an account of results in US20250129135A1, “Multi-Agonist and Use Thereof” (priority 2021, published 2025).

Sequence of human GCG receptor (P47871 26-477): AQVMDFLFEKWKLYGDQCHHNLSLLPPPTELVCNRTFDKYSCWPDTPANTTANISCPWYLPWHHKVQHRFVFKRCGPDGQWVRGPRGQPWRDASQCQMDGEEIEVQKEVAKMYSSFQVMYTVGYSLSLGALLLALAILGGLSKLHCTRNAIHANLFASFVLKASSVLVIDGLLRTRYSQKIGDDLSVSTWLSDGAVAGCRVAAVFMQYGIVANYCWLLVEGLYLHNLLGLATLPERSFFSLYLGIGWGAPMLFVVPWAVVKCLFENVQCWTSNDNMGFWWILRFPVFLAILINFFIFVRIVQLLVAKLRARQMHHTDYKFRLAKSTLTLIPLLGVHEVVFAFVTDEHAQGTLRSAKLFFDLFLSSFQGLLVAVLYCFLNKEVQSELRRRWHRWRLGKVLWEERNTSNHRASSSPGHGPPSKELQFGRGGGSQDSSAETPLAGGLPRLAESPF

B1: Compound 33 (peptide)
peptide: YXQGTXTSDYSIXLDKKAQXAFIEFLLESHPSSXHPPXS
modifications: Aib at 2; αMeF at 6; αMeL at 13; Lys 17 side chain AEEAc-AEEAc-γGlu-CO(CH2)18COOH; Aib at 20; Aib at 34; Ac3c at 38; C-terminal amide (NH2)
Take B1: in the test with human GIP receptor, the “cAMP EC50, CHO cells stably overexpressing human GIP R” value was found to be 0.008 nM and the “cAMP Rel. A (%) against human GIP, human GIP R cells” value (“cAMP Rel. A (%) against human GIP” below) was found to be 2260%. Moreover, in the test with human GCG receptor, the “cAMP EC50, HEK-293 cells stably overexpressing human GCG R” value came to 0.155 nM and the “cAMP Rel. A (%) against human GCG, human GCG R cells” value (shortened to “cAMP Rel. A (%) against human GCG”) was 36.8%. Besides, in the test with human GLP-1 receptor, the “cAMP EC50, HEK-293 cells stably overexpressing human GLP-1 R” value is 0.019 nM and the “cAMP Rel. A (%) against human GLP-1 (7-37), human GLP-1 R cells” value (“cAMP Rel. A (%) … human GLP-1 R cells” for short) worked out at 232%.

B2: Compound 42 (peptide)
peptide: YXQGTXTSDYSILLDKKAQXAFIEFLLESHPSSXHPPXS
modifications: Aib at 2; αMeF at 6; Lys 17 side chain AEEAc-AEEAc-γGlu-CO(CH2)18COOH; Aib at 20; Aib at 34; Ac3c at 38; C-terminal amide (NH2)
For B2, in the test with human GIP receptor, the “cAMP EC50, CHO cells stably overexpressing human GIP R” value amounted to 0.07 nM and the “cAMP Rel. A (%) against human GIP” value is 259%. In the test with human GCG receptor, the “cAMP EC50, HEK-293 cells stably overexpressing human GCG R” value stood at 0.495 nM and the “cAMP Rel. A (%) against human GCG” value amounted to 11.5%. Also, in the test with human GLP-1 receptor, the “cAMP EC50, HEK-293 cells stably overexpressing human GLP-1 R” value was determined as 0.009 nM and the “cAMP Rel. A (%) … human GLP-1 R cells” value was determined as 489%.

B3: Compound 43 (peptide)
peptide: YXQGTXTSDYSIXLDKKAQXAFIEYLLESHPSSXHPPXS
modifications: Aib at 2; αMeF(2F) at 6; αMeL at 13; Lys 17 side chain AEEAc-AEEAc-γGlu-CO(CH2)18COOH; Aib at 20; Aib at 34; Ac3c at 38; C-terminal amide (NH2)
For the molecule B3, in the test with human GIP receptor, the “cAMP EC50, CHO cells stably overexpressing human GIP R” value stood at 0.041 nM and the “cAMP Rel. A (%) against human GIP” value came to 441%. Besides, in the test with human GCG receptor, the “cAMP EC50, HEK-293 cells stably overexpressing human GCG R” value worked out at 0.127 nM and the “cAMP Rel. A (%) against human GCG” value came out at 44.9%. Besides, in the test with human GLP-1 receptor, the “cAMP EC50, HEK-293 cells stably overexpressing human GLP-1 R” value amounted to 0.01 nM and the “cAMP Rel. A (%) … human GLP-1 R cells” value is 440%.

B4: Compound 40 (peptide)
peptide: YXQGTXTSDYSIXLDKKAQXAFIEFLLESHPSSXHPPXS
modifications: Aib at 2; αMeF(2F) at 6; αMeL at 13; Lys 17 side chain AEEAc-AEEAc-γGlu-CO(CH2)18COOH; Aib at 20; Aib at 34; Ac3c at 38; C-terminal amide (NH2)
As for B4, in the test with human GIP receptor, the “cAMP EC50, CHO cells stably overexpressing human GIP R” value was determined as 0.12 nM and the “cAMP Rel. A (%) against human GIP” value came out at 151%. Moreover, in the test with human GCG receptor, the “cAMP EC50, HEK-293 cells stably overexpressing human GCG R” value was 0.167 nM and the “cAMP Rel. A (%) against human GCG” value is 34.1%. In addition, in the test with human GLP-1 receptor, the “cAMP EC50, HEK-293 cells stably overexpressing human GLP-1 R” value was 0.016 nM and the “cAMP Rel. A (%) … human GLP-1 R cells” value was 275%.

B5: Compound 41 (peptide)
peptide: YXQGTXTSDYSILLDKKAQXAFIEFLLESHPSSXHPPXS
modifications: Aib at 2; αMeF(2F) at 6; Lys 17 side chain AEEAc-AEEAc-γGlu-CO(CH2)18COOH; Aib at 20; Aib at 34; Ac3c at 38; C-terminal amide (NH2)
For B5, in the test with human GIP receptor, the “cAMP EC50, CHO cells stably overexpressing human GIP R” value stood at 0.073 nM and the “cAMP Rel. A (%) against human GIP” value is 248%. Moreover, in the test with human GCG receptor, the “cAMP EC50, HEK-293 cells stably overexpressing human GCG R” value turned out to be 0.081 nM and the “cAMP Rel. A (%) against human GCG” value was 70.4%. Further, in the test with human GLP-1 receptor, the “cAMP EC50, HEK-293 cells stably overexpressing human GLP-1 R” value worked out at 0.012 nM and the “cAMP Rel. A (%) … human GLP-1 R cells” value turned out to be 367%.

B6: Compound 10 (peptide)
peptide: YXQGTXTSDYSIFLDKKAQXAFIEFLLESHPSSGAPPXS
modifications: Aib at 2; αMeF(2F) at 6; Lys 17 side chain AEEAc-AEEAc-γGlu-CO(CH2)18COOH; Aib at 20; Ac3c at 38; C-terminal amide (NH2)
As for B6, in the test with human GIP receptor, the “cAMP EC50, CHO cells stably overexpressing human GIP R” value was 0.021 nM and the “cAMP Rel. A (%) against human GIP” value was 862%. For the same molecule, in the test with human GCG receptor, the “cAMP EC50, HEK-293 cells stably overexpressing human GCG R” value was 0.076 nM and the “cAMP Rel. A (%) against human GCG” value is 75%. Also, in the test with human GLP-1 receptor, the “cAMP EC50, HEK-293 cells stably overexpressing human GLP-1 R” value came to 0.047 nM and the “cAMP Rel. A (%) … human GLP-1 R cells” value was found to be 93.6%.

B7: Compound 36 (peptide)
peptide: YXQGTXTSDYSIXLDKKAQXAFIEFLLEGGPSSXHPPPS
modifications: Aib at 2; αMeF at 6; αMeL at 13; Lys 17 side chain AEEAc-AEEAc-γGlu-CO(CH2)18COOH; Aib at 20; Aib at 34; C-terminal amide (NH2)
As to B7, the “cAMP Rel. A (%) against human GIP” value in the test with human GIP receptor was 2590%. Also, the “cAMP Rel. A (%) against human GCG” value with human GCG receptor turned out to be 127%. In addition, in the test with human GLP-1 receptor, the “cAMP EC50, HEK-293 cells stably overexpressing human GLP-1 R” value is 0.025 nM and the “cAMP Rel. A (%) … human GLP-1 R cells” value came to 176%.

B8: Compound 39 (peptide)
peptide: YXQGTXTSDYSIXLDKKAQXAFIEFLLETRPSSXHPPPS
modifications: Aib at 2; αMeF(2F) at 6; αMeL at 13; Lys 17 side chain AEEAc-AEEAc-γGlu-CO(CH2)18COOH; Aib at 20; Aib at 34; C-terminal amide (NH2)
On to B8, for which, in the test with human GIP receptor, the “cAMP EC50, CHO cells stably overexpressing human GIP R” value amounted to 0.015 nM and the “cAMP Rel. A (%) against human GIP” value was found to be 1210%. In the test with human GCG receptor, the “cAMP EC50, HEK-293 cells stably overexpressing human GCG R” value turned out to be 0.153 nM and the “cAMP Rel. A (%) against human GCG” value amounted to 37.2%. Also, in the test with human GLP-1 receptor, the “cAMP EC50, HEK-293 cells stably overexpressing human GLP-1 R” value came to 0.078 nM and the “cAMP Rel. A (%) … human GLP-1 R cells” value was determined as 56.4%.

B9: Compound 37 (peptide)
peptide: YXQGTXTSDYSIXLDKKAQXAFIEFLLEGRPSSXHPPPS
modifications: Aib at 2; αMeF at 6; αMeL at 13; Lys 17 side chain AEEAc-AEEAc-γGlu-CO(CH2)18COOH; Aib at 20; Aib at 34; C-terminal amide (NH2)
Regarding B9, in the test with human GIP receptor, the “cAMP EC50, CHO cells stably overexpressing human GIP R” value worked out at 0.015 nM and the “cAMP Rel. A (%) against human GIP” value was determined as 1210%. Also, in the test with human GCG receptor, the “cAMP EC50, HEK-293 cells stably overexpressing human GCG R” value was found to be 0.082 nM and the “cAMP Rel. A (%) against human GCG” value was determined as 69.5%. In the test with human GLP-1 receptor, the “cAMP EC50, HEK-293 cells stably overexpressing human GLP-1 R” value amounted to 0.028 nM and the “cAMP Rel. A (%) … human GLP-1 R cells” value was 157%.

B10: Compound 3 (peptide)
peptide: YXQGTXTSDYSIXLDKKAQXAFIEYLLESHPSSGAPPXS
modifications: Aib at 2; αMeF at 6; αMeL at 13; Lys 17 side chain AEEAc-AEEAc-γGlu-CO(CH2)18COOH; Aib at 20; Ac3c at 38; C-terminal amide (NH2)
For B10, in the test with human GIP receptor, the “cAMP EC50, CHO cells stably overexpressing human GIP R” value was 0.024 nM and the “cAMP Rel. A (%) against human GIP” value was 754%. In the test with human GCG receptor, the “cAMP EC50, HEK-293 cells stably overexpressing human GCG R” value stood at 0.12 nM and the “cAMP Rel. A (%) against human GCG” value worked out at 47.5%. In addition, the “cAMP Rel. A (%) … human GLP-1 R cells” value with human GLP-1 receptor came out at 100%.
